Test results published in article PMC4564863.

Assays:
InbR (Rv0275c) = InbR (Rv0275c) (Mycobacterium tuberculosis, UniProt L7N6A2); experiment: biochemical
InbR = target: T1, InbR (Mycobacterium tuberculosis H37Rv, UniProt L7N6A2 1-241); experiment: EMSA; 0.25-2 uM InbR; details: protein: recombinant; tags: His6 (pET28a, N-terminal); label: FITC
T1 sequence: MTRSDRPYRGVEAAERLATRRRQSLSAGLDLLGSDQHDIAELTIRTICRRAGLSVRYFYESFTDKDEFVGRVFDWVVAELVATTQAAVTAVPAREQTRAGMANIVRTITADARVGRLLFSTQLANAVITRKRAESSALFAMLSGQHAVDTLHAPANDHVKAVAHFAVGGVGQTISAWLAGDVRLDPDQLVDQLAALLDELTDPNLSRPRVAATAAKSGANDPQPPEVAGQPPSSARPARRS

Molecule: NNC(=O)c1ccncc1 [INH, Isoniazid]
- Kd (InbR (Rv0275c)): 720 nM

B1: Rv0275cp1 (dsDNA)
DNA 1: TGCCGCTAATTATGGAAACACCTGTATCCTGATATTGGCCGG
DNA 2: CCGGCCAATATCAGGATACAGGTGTTTCCATAATTAGCGGCA
- binding result (InbR): binds

B2: Rv0275cp4 (dsDNA)
DNA 1: TGCCGCTAATTATTTATTTGCCGTGGGAATGATATTGGCCGG
DNA 2: CCGGCCAATATCATTCCCACGGCAAATAAATAATTAGCGGCA
- binding result (InbR): no binding
